Test results from the supplement of paper PMC10724198.
± gives the standard deviation of the averaged measurements.
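Also: PSI is a weighted mean of sequencing reads over stability bins, variants kept only with over 10 reads, mCherry proximal and sfGFP distal, peptide attached via GGGS linker.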

These sequences were tested on Saccharomyces cerevisiae (assay: protein stability index of tFT-peptide fusion (C-terminal peptide) (PSI (0-1 scale)); higher = more stable (slower turnover)). Settings: genetic background: wild type; temperature: 37 C.
Procedure: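 MPS profiling in S. cerevisiae of the tFT-X12 degron library: putative degron peptides plus stable controls, 12 aa, fused to the C-terminus of a sfGFP-mCherry timer. Cells are FACS-sorted into 8 mCherry/sfGFP bins and deep-sequenced. PSI runs from 0 (unstable) to 1 (stable). Backgrounds are wild type, das1Δ and doa10Δ at 30 °C, and wild type, das1Δ, cdc34-1 and cdc53-1 at 37 °C; 2-3 technical replicates each.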
With PTLPASLHSIYP the protein stability index was 0.6917 ± 0.0027. Work on PTYSCSIKIQAH yielded a protein stability index of 0.517 ± 0.02. Sequence PWGSHLYYVVCI has a protein stability index of 0.315 ± 0.016. In the case of PWWDALLRARVC, the protein stability index is reported as 0.159 ± 0.0039. PYVHPFRCYWVL gave a protein stability index of 0.181 ± 0.016. QCSPGLPHAQGL showed a protein stability index of 0.708 ± 0.013. In the case of QGPHISQYRTHR, the protein stability index is reported as 0.728 ± 0.0094. QHRAIKIEIKIN showed a protein stability index of 0.0578 ± 0.011. QVLISLYVHGYF was tested, and the protein stability index was 0.519 ± 0.019. Sequence RCCWWNAQAVWR has a protein stability index of 0.73 ± 0.023. In the case of RCLHTSVFLIFP, the protein stability index is reported as 0.54 ± 0.008. RDASLLFHFFVC showed a protein stability index of 0.143 ± 0.015. Work on REGDLLKFKMRP yielded a protein stability index of 0.703 ± 0.027. RFFVRRVRVAVL showed a protein stability index of 0.578 ± 0.048. For RFICMMYLVYLC, the protein stability index was 0.073 ± 0.019. With RFLPYLPTPLSP the protein stability index was 0.568 ± 0.011. RGAVLLPSLWVV gave a protein stability index of 0.551 ± 0.0061. RGCLVHSGFFIV was tested, and the protein stability index was 0.4987 ± 0.0029. Work on RGGVLYVSIRCK yielded a protein stability index of 0.386 ± 0.023. RIHRRLIKNKRV was tested, and the protein stability index was 0.377 ± 0.023. In the case of RIVSGVVLLVFV, the protein stability index is reported as 0.527 ± 0.034. For RKGQNKKRNKIY, the protein stability index was 0.575 ± 0.044. RKWLFFRSWRYV gave a protein stability index of 0.0912 ± 0.024. RLFIIYLLNIQG was tested, and the protein stability index was 0.515 ± 0.022. RLFSPPVLATPS showed a protein stability index of 0.6477 ± 0.0014. Work on RLIAVAGVVVVA yielded a protein stability index of 0.547 ± 0.0055. RLLSIFKILHVG gave a protein stability index of 0.1507 ± 0.00028. RLRHPPRLSTLC gave a protein stability index of 0.594 ± 0.069. RLSTPFTVNHFI gave a protein stability index of 0.374 ± 0.044. Sequence RLVPFMAVRVLF has a protein stability index of 0.5719 ± 0.0024. For RRVRVVCVIVAA, the protein stability index was 0.443 ± 0.025. RSFNVGLELLVW was tested, and the protein stability index was 0.4159 ± 0.001. Work on RTWFTYMSIPVW yielded a protein stability index of 0.311 ± 0.0057. In the case of RVFGWIEVEVEG, the protein stability index is reported as 0.584 ± 0.007. RVFRLDRRLQVV showed a protein stability index of 0.213 ± 0.005. In the case of RVGSSLIVVYCV, the protein stability index is reported as 0.427 ± 0.018. In the case of RVLCLVSSLTLF, the protein stability index is reported as 0.5961 ± 0.00089. For RWTKMNNLIIEF, the protein stability index was 0.699 ± 0.026. RWVFAGVGLFVG gave a protein stability index of 0.598 ± 0.024. SCFDRQIFVPVC showed a protein stability index of 0.4173 ± 0.0038. SDLQVMKLRSVC showed a protein stability index of 0.456 ± 0.021. Work on SFFYFVFYYLSF yielded a protein stability index of 0.308 ± 0.01. Sequence SFIFFVSCFFIF has a protein stability index of 0.416 ± 0.016. SFLRVRSLISCS was tested, and the protein stability index was 0.348 ± 0.013. Sequence SFSRLWSLFRCL has a protein stability index of 0.31 ± 0.038. SFVCFSYYIVNI gave a protein stability index of 0.548 ± 0.049. For SFVLLSSFLVFV, the protein stability index was 0.355 ± 0.0082. SGFLNVGYLWVC was tested, and the protein stability index was 0.308 ± 0.02. In the case of SIFLCRLQNLLI, the protein stability index is reported as 0.407 ± 0.0057. In the case of SILVSIFILAMQ, the protein stability index is reported as 0.355 ± 0.015. Work on SIRVIVAVRNIS yielded a protein stability index of 0.4346 ± 0.0024. In the case of SISVQCSMLRVL, the protein stability index is reported as 0.387 ± 0.038. SLARLRRICFNT gave a protein stability index of 0.469 ± 0.021. Work on SLRPFFPPLPRP yielded a protein stability index of 0.7187 ± 0.0031. With SLVPSIFLFRIF the protein stability index was 0.467 ± 0.014. SLVVMGSLWLRI gave a protein stability index of 0.425 ± 0.07. For SMGVLITYLVQV, the protein stability index was 0.452 ± 0.0061. SMPWFWFVRGIG showed a protein stability index of 0.5186 ± 0.0039. For SNFDVRRLLVIQ, the protein stability index was 0.54 ± 0.014. In the case of SPSTPQALSNFS, the protein stability index is reported as 0.715 ± 0.027. In the case of SPTIFLPLFLTS, the protein stability index is reported as 0.468 ± 0.0067. With SRARIRLPRILS the protein stability index was 0.494 ± 0.015. Sequence SSLTFTFAILLY has a protein stability index of 0.312 ± 0.052. With STLPACNCLKLL the protein stability index was 0.565 ± 0.015. STNMDNRIRTLA was tested, and the protein stability index was 0.556 ± 0.017. SVIVSSFFLWVF was tested, and the protein stability index was 0.426 ± 0.016. Work on SVLVWFLVFLVW yielded a protein stability index of 0.321 ± 0.042. For SVVYCRMRVHFV, the protein stability index was 0.3786 ± 0.0025. Work on SWGEQDRLTGYI yielded a protein stability index of 0.712 ± 0.023. In the case of SWMFKLCIQWNV, the protein stability index is reported as 0.49 ± 0.019. SWSLRLSTIFSV gave a protein stability index of 0.352 ± 0.022. In the case of SYFASLLDLFTA, the protein stability index is reported as 0.759 ± 0.021. TDSSWEVSLMVG gave a protein stability index of 0.741 ± 0.026. In the case of TDVLLLQLLISV, the protein stability index is reported as 0.316 ± 0.0075. TGPLVHLLCCCV gave a protein stability index of 0.386 ± 0.0074. Sequence TKKGQTRPSRTD has a protein stability index of 0.696 ± 0.017. TLKRCFRWCRTT gave a protein stability index of 0.157 ± 0.031. With TLSRTPVSPSAP the protein stability index was 0.696 ± 0.022.

What follows are sequences tested on Saccharomyces cerevisiae in the same assay as above. Settings: genetic background: wild type; temperature: 30 C.
Work on PTLPASLHSIYP yielded a protein stability index of 0.768 ± 0.024. PTYSCSIKIQAH showed a protein stability index of 0.427 ± 0.031. PWGSHLYYVVCI was tested, and the protein stability index was 0.339 ± 0.023. Work on PWWDALLRARVC yielded a protein stability index of 0.163 ± 0.025. PYVHPFRCYWVL gave a protein stability index of 0.193 ± 0.029. Work on QCSPGLPHAQGL yielded a protein stability index of 0.565 ± 0.15. QGPHISQYRTHR showed a protein stability index of 0.706 ± 0.0037. QHRAIKIEIKIN showed a protein stability index of 0.091 ± 0.0089. Sequence QVLISLYVHGYF has a protein stability index of 0.501 ± 0.008. RCCWWNAQAVWR showed a protein stability index of 0.578 ± 0.15. Sequence RCLHTSVFLIFP has a protein stability index of 0.459 ± 0.03. Work on RDASLLFHFFVC yielded a protein stability index of 0.199 ± 0.0058. In the case of REGDLLKFKMRP, the protein stability index is reported as 0.725 ± 0.067. Work on RFFVRRVRVAVL yielded a protein stability index of 0.406 ± 0.0052. RFICMMYLVYLC gave a protein stability index of 0.1405 ± 0.0006. RFLPYLPTPLSP was tested, and the protein stability index was 0.52 ± 0.031. RGAVLLPSLWVV showed a protein stability index of 0.483 ± 0.061. In the case of RGCLVHSGFFIV, the protein stability index is reported as 0.401 ± 0.067. In the case of RGGVLYVSIRCK, the protein stability index is reported as 0.341 ± 0.053. In the case of RIHRRLIKNKRV, the protein stability index is reported as 0.162 ± 0.086. RIVSGVVLLVFV gave a protein stability index of 0.336 ± 0.035. RKGQNKKRNKIY gave a protein stability index of 0.399 ± 0.02. RKWLFFRSWRYV gave a protein stability index of 0.134 ± 0.002. RLFIIYLLNIQG was tested, and the protein stability index was 0.407 ± 0.019. RLFSPPVLATPS gave a protein stability index of 0.0111 ± 0.016. RLIAVAGVVVVA gave a protein stability index of 0.477 ± 0.054. RLLSIFKILHVG showed a protein stability index of 0.188 ± 0.036. With RLRHPPRLSTLC the protein stability index was 0.463 ± 0.0095. RLSTPFTVNHFI gave a protein stability index of 0.312 ± 0.099. RLVPFMAVRVLF showed a protein stability index of 0.487 ± 0.044. For RRVRVVCVIVAA, the protein stability index was 0.373 ± 0.071. In the case of RSFNVGLELLVW, the protein stability index is reported as 0.398 ± 0.0062. For RTWFTYMSIPVW, the protein stability index was 0.343 ± 0.024. With RVFGWIEVEVEG the protein stability index was 0.489 ± 0.079. With RVFRLDRRLQVV the protein stability index was 0.3 ± 0.0059. With RVGSSLIVVYCV the protein stability index was 0.337 ± 0.022. With RVLCLVSSLTLF the protein stability index was 0.441 ± 0.0073. With RWTKMNNLIIEF the protein stability index was 0.7466 ± 0.0064. Work on RWVFAGVGLFVG yielded a protein stability index of 0.502 ± 0.028. For SCFDRQIFVPVC, the protein stability index was 0.442 ± 0.013. SDLQVMKLRSVC gave a protein stability index of 0.398 ± 0.067. In the case of SFFYFVFYYLSF, the protein stability index is reported as 0.2916 ± 0.0027. For SFIFFVSCFFIF, the protein stability index was 0.3325 ± 0.0024. Sequence SFLRVRSLISCS has a protein stability index of 0.294 ± 0.022. Sequence SFSRLWSLFRCL has a protein stability index of 0.244 ± 0.00058. SFVCFSYYIVNI gave a protein stability index of 0.51 ± 0.03. In the case of SFVLLSSFLVFV, the protein stability index is reported as 0.323 ± 0.013. For SGFLNVGYLWVC, the protein stability index was 0.239 ± 0.069. Sequence SIFLCRLQNLLI has a protein stability index of 0.389 ± 0.077. Sequence SILVSIFILAMQ has a protein stability index of 0.189 ± 0.019. With SIRVIVAVRNIS the protein stability index was 0.431 ± 0.052. In the case of SISVQCSMLRVL, the protein stability index is reported as 0.331 ± 0.0089. Sequence SLARLRRICFNT has a protein stability index of 0.3604 ± 0.0024. Sequence SLRPFFPPLPRP has a protein stability index of 0.666 ± 0.28. With SLVPSIFLFRIF the protein stability index was 0.4516 ± 0.0032. SLVVMGSLWLRI gave a protein stability index of 0.415 ± 0.0096. SMGVLITYLVQV was tested, and the protein stability index was 0.45 ± 0.04. For SMPWFWFVRGIG, the protein stability index was 0.461 ± 0.0082. SNFDVRRLLVIQ showed a protein stability index of 0.455 ± 0.033. Work on SPSTPQALSNFS yielded a protein stability index of 0.715 ± 0.038. For SPTIFLPLFLTS, the protein stability index was 0.376 ± 0.037. SRARIRLPRILS was tested, and the protein stability index was 0.333 ± 0.024. With SSLTFTFAILLY the protein stability index was 0.339 ± 0.011. Sequence STLPACNCLKLL has a protein stability index of 0.426 ± 0.069. For STNMDNRIRTLA, the protein stability index was 0.431 ± 0.0013. With SVIVSSFFLWVF the protein stability index was 0.288 ± 0.019. In the case of SVLVWFLVFLVW, the protein stability index is reported as 0.315 ± 0.012. With SVVYCRMRVHFV the protein stability index was 0.285 ± 0.0052. In the case of SWGEQDRLTGYI, the protein stability index is reported as 0.7195 ± 0.0031. SWMFKLCIQWNV was tested, and the protein stability index was 0.467 ± 0.012. With SWSLRLSTIFSV the protein stability index was 0.367 ± 0.0041. For SYFASLLDLFTA, the protein stability index was 0.598 ± 0.16. TDSSWEVSLMVG was tested, and the protein stability index was 0.374 ± 0.053. TDVLLLQLLISV showed a protein stability index of 0.311 ± 0.012. Work on TGPLVHLLCCCV yielded a protein stability index of 0.421 ± 0.011. TKKGQTRPSRTD gave a protein stability index of 0.575 ± 0.21. For TLKRCFRWCRTT, the protein stability index was 0.176 ± 0.0047. Sequence TLSRTPVSPSAP has a protein stability index of 0.7094 ± 0.0059.
